Data: article PMC9621272

What was measured:
Trypsin [1] = biological target: Trypsin (UniProt P00760)
Trypsin [2] = biological target: Trypsin (UniProt P00760); remark: listed apart in the source

Sequence of UniProt P00760 (P00760 18-246): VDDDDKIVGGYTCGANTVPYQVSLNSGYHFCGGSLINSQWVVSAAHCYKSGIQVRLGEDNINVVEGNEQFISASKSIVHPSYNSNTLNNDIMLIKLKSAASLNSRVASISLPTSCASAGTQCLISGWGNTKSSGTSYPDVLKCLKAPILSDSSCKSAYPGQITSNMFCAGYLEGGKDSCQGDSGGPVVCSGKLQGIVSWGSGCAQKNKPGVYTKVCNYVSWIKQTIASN

For “trypsin inhibitor isolated from tamarind seeds (natural protein)”, which antitrypsin activity (%), substrate BApNa 1.25 mM, TTI 0.7 mg/mL after the gastric phase of simulated digestion (TTI remained intact) (Trypsin [1]) is on record?
The antitrypsin activity (%), substrate BApNa 1.25 mM, TTI 0.7 mg/mL after the gastric phase of simulated digestion (TTI remained intact) was 96.6%.

What about the antitrypsin activity (%), substrate BApNa 1.25 mM, TTI intact 0.7 mg/mL, no digestion (Trypsin [1]) of the same substance?
The antitrypsin activity (%), substrate BApNa 1.25 mM, TTI intact 0.7 mg/mL, no digestion was 96.3%.

What about the antitrypsin activity (%) of the eluate from Trypsin-Sepharose (Trypsin [2]) of the same substance?
Its antitrypsin activity (%) of the eluate from Trypsin-Sepharose is 97%.
